The values that follow come from patent publication US20080038748.

The target in this data set is T1, human recombinant LAP β1 (R&D), not treated with protease.
T1 chain: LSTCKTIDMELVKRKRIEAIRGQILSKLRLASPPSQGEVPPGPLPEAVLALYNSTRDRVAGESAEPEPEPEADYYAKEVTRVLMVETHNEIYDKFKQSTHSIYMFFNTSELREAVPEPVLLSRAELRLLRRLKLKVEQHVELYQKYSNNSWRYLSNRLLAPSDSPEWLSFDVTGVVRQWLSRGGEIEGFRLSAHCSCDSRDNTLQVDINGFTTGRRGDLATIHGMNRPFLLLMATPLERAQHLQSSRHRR

B1: human matrix metalloprotease 9 (MMP9) (Alexis), APMA-activated (protein)
chain: MRTPRCGVPDLGRFQTFEGDLKWHHHNITYWIQNYSEDLPRAVIDDAFARAFALWSAVTPLTFTRVYSRDADIVIQFGVAEHGDGYPFDGKDGLLAHAFPPGPGIQGDAHFDDDELWSLGKGVVVPTRFGNADGAACHFPFIFEGRSYSACTTDGRSDGLPWCSTTANYDTDDRFGFCPSERLYTQDGNADGKPCQFPFIFQGQSYSACTTDGRSDGYRWCATTANYDRDKLFGFCPTRADSTVMGGNSAGELCVFPFTFLGKEYSTCTSEGRGDGRLWCATTSNFDSDKKWGFCPDQGYSLFLVAAHEFGHALGLDHSSVPEALMYPMYRFTEGPPLHKDDVNGIRHLYGPRPEPEPRPPTTTTPQPTAPPTVCPTGPPTVHPSERPTAGPTGPPSAGPTGPPTAGPSTATTVPLSPVDDACNVNIFDAIAEIGNQLYLFKDGKYWRFSEGRGSRPQGPFLIADKWPALPRKLDSVFEERLSKKLFFFSGRQVWVYTGASVLGPRRLDKLGLGADVAQVTGALRSGRGKMLLFSGRRLWRFDVKAQMVDPRSASEVDRMFPGVPLDTHDVFQYREKAYFCQDRFYWRVSSRSELNQVDQVGYVTYDILQCPED
Take B1: the “degradation of LAP β1 (SDS-PAGE, silver staining)” value is given as “degradation of LAP could not be confirmed”.

B2: human blood-derived plasmin (PLN) (Sigma) (protein)
chain: KVYLSECKTGNGKNYRGTMSKTKNGITCQKWSSTSPHRPRFSPATHPSEGLEENYCRNPDNDPQGPWCYTTDPEKRYDYCDILECEEECMHCSGENYDGKISKTMSGLECQAWDSQSPHAHGYIPSKFPNKNLKKNYCRNPDRELRPWCFTTDPNKRWELCDIPRCTTPPPSSGPTYQCLKGTGENYRGNVAVTVSGHTCQHWSAQTPHTHNRTPENFPCKNLDENYCRNPDGKRAPWCHTTNSQVRWEYCKIPSCDSSPVSTEQLAPTAPPELTPVVQDCYHGDGQSYRGTSSTTTTGKKCQSWSSMTPHRHQKTPENYPNAGLTMNYCRNPDADKGPWCFTTDPSVRWEYCNLKKCSGTEASVVAPPPVVLLPDVETPSEEDCMFGNGKGYRGKRATTVTGTPCQDWAAQEPHRHSIFTPETNPRAGLEKNYCRNPDGDVGGPWCYTTNPRKLYDYCDVPQCAAPSFDCGKPQVEPKKCPGRVVGGCVAHPHSWPWQVSLRTRFGMHFCGGTLISPEWVLTAAHCLEKSPRPSSYKVILGAHQEVNLEPHVQEIEVSRLFLEPTRKDIALLKLSSPAVITDKVIPACLPSPNYVVADRTECFITGWGETQGTFGAGLLKEAQLPVIENKVCNRYEFLNGRVQSTELCAGHLAGGTDSCQGDSGGPLVCFEKDKYILQGVTSWGLGCARPNKPGVYVRVSRFVTWIEGVMRNN
Turning to B2, the “limited degradation on longer incubation; cleavage sites by N-terminal sequencing” value was “plasmin successively cleaved between 85 Arg and 86 Asp, and between 106 Lys and 107 Glu”; the “limited degradation; cleavage site by N-terminal sequencing of the fragments” value is “plasmin specifically cleaves between 56 Lys and 57 Leu of latent TGF-β”.

B3: human matrix metalloprotease 2 (MMP2) (Alexis), APMA-activated (protein)
chain: YNFFPRKPKWDKNQITYRIIGYTPDLDPETVDDAFARAFQVWSDVTPLRFSRIHDGEADIMINFGRWEHGDGYPFDGKDGLLAHAFAPGTGVGGDSHFDDDELWTLGEGQVVRVKYGNADGEYCKFPFLFNGKEYNSCTDTGRSDGFLWCSTTYNFEKDGKYGFCPHEALFTMGGNAEGQPCKFPFRFQGTSYDSCTTEGRTDGYRWCGTTEDYDRDKKYGFCPETAMSTVGGNSEGAPCVFPFTFLGNKYESCTSAGRSDGKMWCATTANYDDDRKWGFCPDQGYSLFLVAAHEFGHAMGLEHSQDPGALMAPIYTYTKNFRLSQDDIKGIQELYGASPDIDLGTGPTPTLGPVTPEICKQDIVFDGIAQIRGEIFFFKDRFIWRTVTPRDKPMGPLLVATFWPELPEKIDAVYEAPQEEKAVFFAGNEYWIYSASTLERGYPKPLTSLGLPPDVQRVDAAFNWSKNKKTYIFAGDKFWRYNEVKKKMDPGFPKLIADAWNAIPDNLDAVVDLQGGGHSYFFKGAYYLKLENQSLKSVKFGSIKSDWLGC
For B3, the “degradation of LAP β1 (SDS-PAGE, silver staining)” value was “degradation of LAP could not be confirmed”.
